Results on 2 substances are retold here after article PMC5583147.

For assay [1], the target named is C3b-B complex (UniProt P01024). In words: SPR; C3b amine-coupled on CM5 chip; Biacore T100, 25 C; HBS-N (10 mM HEPES pH 7.4, 150 mM NaCl) with 2 mM MgCl2; factor B 54 nM, factor D 20 nM, Lufaxin up to 1 uM injected in combinations. A general note: Surface plasmon resonance follows binding to a sensor surface in real time, without labels.
Assay [2] concerns the target C3b-B complex (UniProt P01024). In words: SPR; C3b amine-coupled on CM5 chip; Biacore T100, 25 C; HBS-N with 2 mM NiCl2; factor B 54 nM, Lufaxin 1 uM, together or Lufaxin after formation of C3b-B.
In the next assay the target is C3b (UniProt P01024). Described as above.

Lufaxin, sequence (Q5WPU8 24-301 limits assumed): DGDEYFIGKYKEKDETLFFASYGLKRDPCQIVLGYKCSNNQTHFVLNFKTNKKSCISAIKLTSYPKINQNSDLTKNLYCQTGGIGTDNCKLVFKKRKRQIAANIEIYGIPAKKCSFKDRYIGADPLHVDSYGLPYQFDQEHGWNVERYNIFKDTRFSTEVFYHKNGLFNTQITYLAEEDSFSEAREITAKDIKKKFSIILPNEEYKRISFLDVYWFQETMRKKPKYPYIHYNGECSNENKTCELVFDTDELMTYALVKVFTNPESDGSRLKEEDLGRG
UniProt P01024, sequence (P01024 23-667, chain 1 of 2): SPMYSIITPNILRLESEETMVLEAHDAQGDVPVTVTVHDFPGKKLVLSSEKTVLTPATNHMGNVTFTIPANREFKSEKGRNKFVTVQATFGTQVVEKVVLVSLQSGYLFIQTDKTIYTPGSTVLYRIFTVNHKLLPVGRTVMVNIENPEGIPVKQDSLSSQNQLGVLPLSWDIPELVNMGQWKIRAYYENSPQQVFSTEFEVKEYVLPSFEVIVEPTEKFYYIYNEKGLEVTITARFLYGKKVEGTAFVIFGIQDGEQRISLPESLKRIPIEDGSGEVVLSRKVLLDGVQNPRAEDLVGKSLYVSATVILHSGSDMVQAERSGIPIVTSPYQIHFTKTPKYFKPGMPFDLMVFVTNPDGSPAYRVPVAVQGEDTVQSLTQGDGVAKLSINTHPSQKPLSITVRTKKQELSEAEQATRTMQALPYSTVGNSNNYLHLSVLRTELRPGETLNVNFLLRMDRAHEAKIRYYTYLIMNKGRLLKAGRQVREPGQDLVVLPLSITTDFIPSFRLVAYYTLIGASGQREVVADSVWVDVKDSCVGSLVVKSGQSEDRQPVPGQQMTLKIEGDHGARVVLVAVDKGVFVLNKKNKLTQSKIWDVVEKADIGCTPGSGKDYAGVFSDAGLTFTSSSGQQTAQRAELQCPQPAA
UniProt P01024, sequence (P01024 749-1663, chain 2 of 2): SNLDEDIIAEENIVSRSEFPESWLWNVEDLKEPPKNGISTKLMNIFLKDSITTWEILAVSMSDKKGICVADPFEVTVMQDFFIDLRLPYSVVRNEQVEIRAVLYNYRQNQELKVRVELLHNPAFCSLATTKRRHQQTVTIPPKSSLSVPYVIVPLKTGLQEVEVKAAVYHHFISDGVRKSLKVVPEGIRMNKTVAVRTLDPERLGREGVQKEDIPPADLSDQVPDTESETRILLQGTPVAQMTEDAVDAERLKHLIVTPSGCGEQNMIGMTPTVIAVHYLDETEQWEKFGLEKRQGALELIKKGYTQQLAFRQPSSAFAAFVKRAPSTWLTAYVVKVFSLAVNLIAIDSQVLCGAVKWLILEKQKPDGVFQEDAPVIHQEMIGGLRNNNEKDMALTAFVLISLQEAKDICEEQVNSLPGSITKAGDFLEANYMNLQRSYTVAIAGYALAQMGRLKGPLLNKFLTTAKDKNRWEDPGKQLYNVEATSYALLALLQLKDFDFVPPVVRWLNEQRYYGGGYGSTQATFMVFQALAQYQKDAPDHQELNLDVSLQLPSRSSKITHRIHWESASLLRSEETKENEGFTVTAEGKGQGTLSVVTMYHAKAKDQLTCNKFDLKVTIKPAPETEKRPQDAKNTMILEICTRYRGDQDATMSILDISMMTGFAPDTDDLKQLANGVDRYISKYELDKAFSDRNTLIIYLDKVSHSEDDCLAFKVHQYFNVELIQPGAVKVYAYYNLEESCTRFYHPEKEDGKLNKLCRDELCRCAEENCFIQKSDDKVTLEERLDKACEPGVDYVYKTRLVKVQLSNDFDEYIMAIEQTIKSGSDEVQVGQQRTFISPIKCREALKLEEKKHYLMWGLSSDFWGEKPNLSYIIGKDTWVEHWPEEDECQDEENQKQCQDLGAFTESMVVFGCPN

Lufaxin (natural protein): the half-time of dissociation of C3b-B-Lufaxin from the C3b surface (Mg2+) with C3b-B complex [1] was 135 s. The same substance displayed a half-time of dissociation of C3b-B-Lufaxin from the C3b surface (Ni2+) with C3b-B complex [2] of 400 s. Turning to factor B (natural protein), in the assay with C3b, the half-time of dissociation of C3b-B (Ni2+) is 600 s.
